Measurements as given in US12060424 (AMUNIX PHARMACEUTICALS, dated 2024).

What was measured:
[1] = target: T1, human EpCAM expressed on cells (CHO cells stably transfected with human EpCAM); EpCAM-positive human tumor … (human, UniProt P16422 24-314); test: cell-based or functional assay
T1 sequence (looked up): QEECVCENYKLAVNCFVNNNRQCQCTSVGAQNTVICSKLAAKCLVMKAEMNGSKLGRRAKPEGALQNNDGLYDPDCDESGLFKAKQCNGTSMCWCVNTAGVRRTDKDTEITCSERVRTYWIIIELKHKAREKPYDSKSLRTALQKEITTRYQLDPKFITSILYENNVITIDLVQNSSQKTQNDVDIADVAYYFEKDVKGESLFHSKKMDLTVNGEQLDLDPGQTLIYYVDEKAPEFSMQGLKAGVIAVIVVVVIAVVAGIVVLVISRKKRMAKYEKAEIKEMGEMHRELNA

[2] = target: recombinant human CD3 epsilon & delta (rhCD3ε & δ), Creative BioMart cat #CD3E&CD3D-219H (human) (UniProt P07766); test: sandwich ELISA: rhCD3ε & δ coated, biotinylated anti-XTEN antibody detection
Sequence of recombinant human CD3 epsilon & delta (rhCD3ε & δ), Creative BioMart cat #CD3E&CD3D-219H (human) (P07766 23-126, stated change not applied, chain 1 of 2): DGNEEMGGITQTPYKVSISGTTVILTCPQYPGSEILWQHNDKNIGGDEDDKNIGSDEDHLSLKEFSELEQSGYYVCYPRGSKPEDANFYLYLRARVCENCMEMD
Sequence of recombinant human CD3 epsilon & delta (rhCD3ε & δ), Creative BioMart cat #CD3E&CD3D-219H (human) (P04234 22-105, stated change not applied, chain 2 of 2, further chain): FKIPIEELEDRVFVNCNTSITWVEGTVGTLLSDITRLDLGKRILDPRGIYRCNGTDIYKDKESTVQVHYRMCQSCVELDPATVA

| Binder | EC50 (pM), caspase 3/7 cytotoxicity, PBMC with HCT-116 cells 10:1 [1] [pM] | EC50 (pM), caspase 3/7 cytotoxicity, PBMC with HPAF-II cells 10:1 [1] [pM] | EC50 (pM), caspase 3/7 cytotoxicity, PBMC with MDA-MB-231 cells 10:1 [1] [pM] | EC50 [2] [µg/mL] |
| --- | --- | --- | --- | --- |
| AC1695 protease-untreated anti-EpCAM×anti-CD3 ProTIA (bispecific antibody) DIQMTQSPSSLSASVGDRVTITCRSTKSLLHSNGITYLYWYQQKPGKAPKLLIYQMSNLASGVPSRFSSSGSGTDFTLTISSLQPEDFATYYCAQNLEIPRTFGQGTKVEIKGATPPETGAETESPGETTGGSAESEPPGEGQVQLVQSGPGLVQPGGSVRISCAASGYTFTNYGMNWVKQAPGKGLEWMGWINTYTGESTYADSFKGRFTFSLDTSASAAYLQINSLRAEDTAVYYCARFAIKGDYWGQGTLLTVSSGGGGSDIQMTQSPSSLSASVGDRVTITCRASQDIRNYLNWYQQKPGKAPKLLIYYTSRLESGVPSRFSGSGSGTDYTLTISSLQPEDFATYYCQQGNTLPWTFGQGTKVEIKGATPPETGAETESPGETTGGSAESEPPGEGEVQLVESGGGLVQPGGSLRLSCAASGYSFTGYTMNWVRQAPGKGLEWVALINPYKGVSTYNQKFKDRFTISVDKSKNTAYLQMNSLRAEDTAVYYCARSGYYGDSDWYFDVWGQGTLVTVSSGTAEAASASGTTGRAGEAANLTPAGLTGPPGSPAGSPTSTEEGTSESATPESGPGTSTEPSEGSAPGSPAGSPTSTEEGTSTEPSEGSAPGTSTEPSEGSAPGTSESATPESGPGSEPATSGSETPGSEPATSGSETPGSPAGSPTSTEEGTSESATPESGPGTSTEPSEGSAPGTSTEPSEGSAPGSPAGSPTSTEEGTSTEPSEGSAPGTSTEPSEGSAPGTSESATPESGPGTSTEPSEGSAPGTSESATPESGPGSEPATSGSETPGTSTEPSEGSAPGTSTEPSEGSAPGTSESATPESGPGTSESATPESGPGSPAGSPTSTEEGTSESATPESGPGSEPATSGSETPGTSESATPESGPGTSTEPSEGSAPGTSTEPSEGSAPGTSTEPSEGSAPGTSTEPSEGSAPGTSTEPSEGSAPGTSTEPSEGSAPGSPAGSPTSTEEGTSTEPSEGSAPGTSESATPESGPGSEPATSGSETPGTSESATPESGPGSEPATSGSETPGTSESATPESGPGTSTEPSEGSAPGTSESATPESGPGSPAGSPTSTEEGSPAGSPTSTEEGSPAGSPTSTEEGTSESATPESGPGTSTEPSEGSAPGTSESATPESGPGSEPATSGSETPGTSESATPESGPGSEPATSGSETPGTSESATPESGPGTSTEPSEGSAPGSPAGSPTSTEEGTSESATPESGPGSEPATSGSETPGTSESATPESGPGSPAGSPTSTEEGSPAGSPTSTEEGTSTEPSEGSAPGTSESATPESGPGTSESATPESGPGTSESATPESGPGSEPATSGSETPGSEPATSGSETPGSPAGSPTSTEEGTSTEPSEGSAPGTSTEPSEGSAPGSEPATSGSETPGTSESATPESGPGTSTEPSEGSAPGHHHHHH | 53 | 18 | 3750 | 0.028 |
| AC1714 protease-untreated anti-EpCAM×anti-CD3 ProTIA (bispecific antibody) DIQMTQSPSSLSASVGDRVTITCRSTKSLLHSNGITYLYWYQQKPGKAPKLLIYQMSNLASGVPSRFSSSGSGTDFTLTISSLQPEDFATYYCAQNLEIPRTFGQGTKVEIKGATPPETGAETESPGETTGGSAESEPPGEGQVQLVQSGPGLVQPGGSVRISCAASGYTFTNYGMNWVKQAPGKGLEWMGWINTYTGESTYADSFKGRFTFSLDTSASAAYLQINSLRAEDTAVYYCARFAIKGDYWGQGTLLTVSSGGGGSDIQMTQSPSSLSASVGDRVTITCRASQDIRNYLNWYQQKPGKAPKLLIYYTSRLESGVPSRFSGSGSGTDYTLTISSLQPEDFATYYCQQGNTLPWTFGQGTKVEIKGATPPETGAETESPGETTGGSAESEPPGEGEVQLVESGGGLVQPGGSLRLSCAASGYSFTGYTMNWVRQAPGKGLEWVALINPYKGVSTYNQKFKDRFTISVDKSKNTAYLQMNSLRAEDTAVYYCARSGYYGDSDWYFDVWGQGTLVTVSSGTAEAASASGEAGRSANHTPAGLTGPPGSPAGSPTSTEEGTSESATPESGPGTSTEPSEGSAPGSPAGSPTSTEEGTSTEPSEGSAPGTSTEPSEGSAPGTSESATPESGPGSEPATSGSETPGSEPATSGSETPGSPAGSPTSTEEGTSESATPESGPGTSTEPSEGSAPGTSTEPSEGSAPGSPAGSPTSTEEGTSTEPSEGSAPGTSTEPSEGSAPGTSESATPESGPGTSTEPSEGSAPGTSESATPESGPGSEPATSGSETPGTSTEPSEGSAPGTSTEPSEGSAPGTSESATPESGPGTSESATPESGPGSPAGSPTSTEEGTSESATPESGPGSEPATSGSETPGTSESATPESGPGTSTEPSEGSAPGTSTEPSEGSAPGTSTEPSEGSAPGTSTEPSEGSAPGTSTEPSEGSAPGTSTEPSEGSAPGSPAGSPTSTEEGTSTEPSEGSAPGTSESATPESGPGSEPATSGSETPGTSESATPESGPGSEPATSGSETPGTSESATPESGPGTSTEPSEGSAPGTSESATPESGPGSPAGSPTSTEEGSPAGSPTSTEEGSPAGSPTSTEEGTSESATPESGPGTSTEPSEGSAPGTSESATPESGPGSEPATSGSETPGTSESATPESGPGSEPATSGSETPGTSESATPESGPGTSTEPSEGSAPGSPAGSPTSTEEGTSESATPESGPGSEPATSGSETPGTSESATPESGPGSPAGSPTSTEEGSPAGSPTSTEEGTSTEPSEGSAPGTSESATPESGPGTSESATPESGPGTSESATPESGPGSEPATSGSETPGSEPATSGSETPGSPAGSPTSTEEGTSTEPSEGSAPGTSTEPSEGSAPGSEPATSGSETPGTSESATPESGPGTSTEPSEGSAPGHHHHHH | 52 | 20 | 1740 | 0.03 |
| AC1715 protease-untreated anti-EpCAM×anti-CD3 ProTIA (bispecific antibody) DIQMTQSPSSLSASVGDRVTITCRSTKSLLHSNGITYLYWYQQKPGKAPKLLIYQMSNLASGVPSRFSSSGSGTDFTLTISSLQPEDFATYYCAQNLEIPRTFGQGTKVEIKGATPPETGAETESPGETTGGSAESEPPGEGQVQLVQSGPGLVQPGGSVRISCAASGYTFTNYGMNWVKQAPGKGLEWMGWINTYTGESTYADSFKGRFTFSLDTSASAAYLQINSLRAEDTAVYYCARFAIKGDYWGQGTLLTVSSGGGGSDIQMTQSPSSLSASVGDRVTITCRASQDIRNYLNWYQQKPGKAPKLLIYYTSRLESGVPSRFSGSGSGTDYTLTISSLQPEDFATYYCQQGNTLPWTFGQGTKVEIKGATPPETGAETESPGETTGGSAESEPPGEGEVQLVESGGGLVQPGGSLRLSCAASGYSFTGYTMNWVRQAPGKGLEWVALINPYKGVSTYNQKFKDRFTISVDKSKNTAYLQMNSLRAEDTAVYYCARSGYYGDSDWYFDVWGQGTLVTVSSGTAEAASASGESGRAANTTPAGLTGPPGSPAGSPTSTEEGTSESATPESGPGTSTEPSEGSAPGSPAGSPTSTEEGTSTEPSEGSAPGTSTEPSEGSAPGTSESATPESGPGSEPATSGSETPGSEPATSGSETPGSPAGSPTSTEEGTSESATPESGPGTSTEPSEGSAPGTSTEPSEGSAPGSPAGSPTSTEEGTSTEPSEGSAPGTSTEPSEGSAPGTSESATPESGPGTSTEPSEGSAPGTSESATPESGPGSEPATSGSETPGTSTEPSEGSAPGTSTEPSEGSAPGTSESATPESGPGTSESATPESGPGSPAGSPTSTEEGTSESATPESGPGSEPATSGSETPGTSESATPESGPGTSTEPSEGSAPGTSTEPSEGSAPGTSTEPSEGSAPGTSTEPSEGSAPGTSTEPSEGSAPGTSTEPSEGSAPGSPAGSPTSTEEGTSTEPSEGSAPGTSESATPESGPGSEPATSGSETPGTSESATPESGPGSEPATSGSETPGTSESATPESGPGTSTEPSEGSAPGTSESATPESGPGSPAGSPTSTEEGSPAGSPTSTEEGSPAGSPTSTEEGTSESATPESGPGTSTEPSEGSAPGTSESATPESGPGSEPATSGSETPGTSESATPESGPGSEPATSGSETPGTSESATPESGPGTSTEPSEGSAPGSPAGSPTSTEEGTSESATPESGPGSEPATSGSETPGTSESATPESGPGSPAGSPTSTEEGSPAGSPTSTEEGTSTEPSEGSAPGTSESATPESGPGTSESATPESGPGTSESATPESGPGSEPATSGSETPGSEPATSGSETPGSPAGSPTSTEEGTSTEPSEGSAPGTSTEPSEGSAPGSEPATSGSETPGTSESATPESGPGTSTEPSEGSAPGHHHHHH | 20 | 14 | 1190 | 0.034 |
